{
  "source": "paper PMC10825162",
  "about": "(Nature Communications, 2024)",
  "binders": {"B1": {"name": "BA7208 (antibody, V domains shown)", "VH": "EVQLVQSGAEVKKPGESLKISCKGSGYSFTSYYWIGWVRQMPGKGLEWMGIVYPDDSDTRYSPSFQGQVTISADKSISTAYLQWSSLKASDTAMYYCVRHPGGGDWYFDLWGRGTLVTVSS", "VL": "DIQMTQSPSTLSASVGDRVTITCRASQSISSWLAWYQQKPGKAPKLLIYKASSLESGVPSRFSGSGSGTEFTLTITSLQPDDFATYYCQQYDSFSWTFGQGTKLEIK"}},
  "target": "SARS-CoV-2 BA.1 RBD protein (SARS-CoV-2 Omicron BA.1, strain)",
  "assay": "SPR",
  "settings": "both partners purified",
  "data": [
    {"binder": "B1", "values": [
      {"measurement": "Kd", "result": 1.81, "unit": "nM"}
    ]}
  ]
}
